In patent EP1789452B1, “RELAXIN-CHIMERIC POLYPEPTIDES AND THEIR PREPARATION AND USE” (Janssen Pharmaceutica NV, priority 2004, dated 2006):

Assays:
rat GPCR135 (rat) = rat GPCR135 (rat) (UniProt Q5Y987); assay: competition with 100 pM [125I] human R3, COS-7 membranes with rat GPCR135
rat LGR7 (rat) = rat LGR7 (rat) (UniProt Q6R6I6); assay: competition with 100 pM [125I] human relaxin-2, COS-7 membranes with rat LGR7
human LGR7 (human) = human LGR7 (human) (UniProt Q9HBX9); assay: cell-based or functional assay
human LGR8 (human) = human LGR8 (human) (UniProt Q8WXD0); assay: cell-based or functional assay
human LGR8 (human), sequence (Q8WXD0 whole entry): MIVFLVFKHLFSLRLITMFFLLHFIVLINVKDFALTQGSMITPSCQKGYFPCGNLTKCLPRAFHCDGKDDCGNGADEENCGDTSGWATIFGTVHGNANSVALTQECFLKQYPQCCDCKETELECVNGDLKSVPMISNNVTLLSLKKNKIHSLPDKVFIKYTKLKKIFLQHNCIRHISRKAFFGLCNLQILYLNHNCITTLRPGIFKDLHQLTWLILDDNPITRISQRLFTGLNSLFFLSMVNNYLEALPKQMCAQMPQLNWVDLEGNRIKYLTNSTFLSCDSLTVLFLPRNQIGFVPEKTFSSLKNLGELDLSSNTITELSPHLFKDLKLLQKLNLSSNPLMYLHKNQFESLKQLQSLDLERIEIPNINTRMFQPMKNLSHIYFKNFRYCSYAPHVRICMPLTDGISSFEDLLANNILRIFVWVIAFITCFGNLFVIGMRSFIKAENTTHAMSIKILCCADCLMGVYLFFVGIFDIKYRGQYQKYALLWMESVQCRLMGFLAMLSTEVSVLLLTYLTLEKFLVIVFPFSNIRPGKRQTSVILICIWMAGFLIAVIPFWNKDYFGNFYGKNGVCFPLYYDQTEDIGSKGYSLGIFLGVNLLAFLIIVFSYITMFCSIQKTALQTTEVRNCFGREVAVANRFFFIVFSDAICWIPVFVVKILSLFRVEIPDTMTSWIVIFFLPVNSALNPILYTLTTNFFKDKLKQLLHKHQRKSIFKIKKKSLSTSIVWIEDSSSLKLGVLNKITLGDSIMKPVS

rat GPCR135 (rat), sequence (Q5Y987 entry or part of it): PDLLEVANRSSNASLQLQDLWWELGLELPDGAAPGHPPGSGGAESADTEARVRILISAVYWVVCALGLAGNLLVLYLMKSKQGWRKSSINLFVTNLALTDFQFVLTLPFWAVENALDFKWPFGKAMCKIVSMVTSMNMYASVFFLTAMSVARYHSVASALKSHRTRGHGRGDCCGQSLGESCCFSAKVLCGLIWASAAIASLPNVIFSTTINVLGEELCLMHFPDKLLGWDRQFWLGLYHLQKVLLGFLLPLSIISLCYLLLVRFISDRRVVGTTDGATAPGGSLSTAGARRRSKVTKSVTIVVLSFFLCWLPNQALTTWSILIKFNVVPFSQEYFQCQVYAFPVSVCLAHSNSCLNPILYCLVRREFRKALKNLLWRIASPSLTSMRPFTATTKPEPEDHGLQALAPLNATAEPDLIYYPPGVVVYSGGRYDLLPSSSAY
human LGR7 (human), sequence (Q9HBX9 whole entry): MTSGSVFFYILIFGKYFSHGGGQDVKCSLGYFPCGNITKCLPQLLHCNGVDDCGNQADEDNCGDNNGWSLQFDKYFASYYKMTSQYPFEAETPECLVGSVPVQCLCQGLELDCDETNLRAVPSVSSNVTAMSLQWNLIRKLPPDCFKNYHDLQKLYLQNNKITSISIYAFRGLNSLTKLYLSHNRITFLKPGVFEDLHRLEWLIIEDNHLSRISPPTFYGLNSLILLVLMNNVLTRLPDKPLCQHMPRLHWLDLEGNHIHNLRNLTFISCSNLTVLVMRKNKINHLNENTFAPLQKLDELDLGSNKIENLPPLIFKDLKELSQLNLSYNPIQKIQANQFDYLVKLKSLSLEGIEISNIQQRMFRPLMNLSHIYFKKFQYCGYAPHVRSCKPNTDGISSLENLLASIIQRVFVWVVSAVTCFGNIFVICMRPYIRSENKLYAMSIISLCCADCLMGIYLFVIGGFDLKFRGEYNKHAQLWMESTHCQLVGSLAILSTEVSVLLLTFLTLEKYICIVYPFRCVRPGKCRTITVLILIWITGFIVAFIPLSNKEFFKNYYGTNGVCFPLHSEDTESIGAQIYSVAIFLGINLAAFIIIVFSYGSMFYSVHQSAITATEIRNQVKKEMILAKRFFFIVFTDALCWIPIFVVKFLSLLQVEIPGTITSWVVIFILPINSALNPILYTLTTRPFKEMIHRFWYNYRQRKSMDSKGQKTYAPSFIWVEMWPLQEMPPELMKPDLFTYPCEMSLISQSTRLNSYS
rat LGR7 (rat), sequence (Q6R6I6 whole entry): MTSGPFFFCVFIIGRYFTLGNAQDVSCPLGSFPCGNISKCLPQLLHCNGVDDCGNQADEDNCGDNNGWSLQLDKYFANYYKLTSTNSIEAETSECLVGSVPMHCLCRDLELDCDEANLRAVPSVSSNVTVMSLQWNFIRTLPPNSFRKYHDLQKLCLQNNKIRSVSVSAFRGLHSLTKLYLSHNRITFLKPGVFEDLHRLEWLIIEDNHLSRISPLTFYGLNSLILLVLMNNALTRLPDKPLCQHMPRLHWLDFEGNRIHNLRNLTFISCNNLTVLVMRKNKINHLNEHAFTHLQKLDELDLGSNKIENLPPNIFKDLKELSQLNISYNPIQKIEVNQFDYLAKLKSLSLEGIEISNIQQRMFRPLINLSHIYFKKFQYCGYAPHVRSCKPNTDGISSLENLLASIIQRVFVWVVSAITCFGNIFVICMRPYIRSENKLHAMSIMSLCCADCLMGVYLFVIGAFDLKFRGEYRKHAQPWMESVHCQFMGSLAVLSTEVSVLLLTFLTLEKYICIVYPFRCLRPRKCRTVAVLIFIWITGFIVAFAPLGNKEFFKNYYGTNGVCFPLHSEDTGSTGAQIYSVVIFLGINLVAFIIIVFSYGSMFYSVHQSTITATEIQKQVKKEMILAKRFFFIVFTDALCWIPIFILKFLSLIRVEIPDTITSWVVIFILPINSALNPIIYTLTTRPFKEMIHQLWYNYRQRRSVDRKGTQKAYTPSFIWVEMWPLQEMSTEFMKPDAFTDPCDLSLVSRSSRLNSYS

| Substance | IC50 (rat GPCR135 (rat)) | IC50 (rat LGR7 (rat)) | stimulation of β-galactosidase activity in SK-N-MC/β-gal cells, EC50 (human LGR7 (human)) | induction of β-galactosidase activity in SK-N-MC/β-gal cells, EC50 (human LGR8 (human)) |
| --- | --- | --- | --- | --- |
| human relaxin (R1) (from UniProt P04808 26-53; P04808 162-185) (ligand) | > 1000 nM | 0.2 nM |  |  |
| porcine relaxin (from UniProt P01348 25-56; P01348 161-182) (ligand) |  |  | 0.25 nM | 1.5 nM |
